Test results reported in article PMC7464562.

Target: SARS-CoV-2 S2 fragment (fusion fragment; postfusion S2 trimer, peak 2) (SARS-CoV-2)
Experiment: cryo-EM structure

SARS-CoV-2 S2 fragment (fusion fragment; postfusion S2 trimer, peak 2) (domain or fragment)
stoichiometry N: 3
